Data on one molecule can be found in PMC6019379, “RecA-like domain 2 of DNA-dependent ATPase A domain, a SWI2/SNF2 protein, mediates conformational integrity and ATP hydrolysis” (Bioscience Reports, 2018).

Test in all cases: intrinsic tryptophan fluorescence titration; no ATP; Fluorescence titration (ex 295 nm, em 340 nm), one-site saturation fit; buffer, salt, pH and temperature not given in the material. Wild-type ADAAD Kd values are cited from ref 24 and not listed
What all share (details): protein: recombinant; tags: His (Ni-NTA, pET-14b); hairpin

One data set has as its target T1, ADAAD S558A (Bos taurus (bovine), UniProt Q9TTA5 221-940, S778A).
T1 sequence: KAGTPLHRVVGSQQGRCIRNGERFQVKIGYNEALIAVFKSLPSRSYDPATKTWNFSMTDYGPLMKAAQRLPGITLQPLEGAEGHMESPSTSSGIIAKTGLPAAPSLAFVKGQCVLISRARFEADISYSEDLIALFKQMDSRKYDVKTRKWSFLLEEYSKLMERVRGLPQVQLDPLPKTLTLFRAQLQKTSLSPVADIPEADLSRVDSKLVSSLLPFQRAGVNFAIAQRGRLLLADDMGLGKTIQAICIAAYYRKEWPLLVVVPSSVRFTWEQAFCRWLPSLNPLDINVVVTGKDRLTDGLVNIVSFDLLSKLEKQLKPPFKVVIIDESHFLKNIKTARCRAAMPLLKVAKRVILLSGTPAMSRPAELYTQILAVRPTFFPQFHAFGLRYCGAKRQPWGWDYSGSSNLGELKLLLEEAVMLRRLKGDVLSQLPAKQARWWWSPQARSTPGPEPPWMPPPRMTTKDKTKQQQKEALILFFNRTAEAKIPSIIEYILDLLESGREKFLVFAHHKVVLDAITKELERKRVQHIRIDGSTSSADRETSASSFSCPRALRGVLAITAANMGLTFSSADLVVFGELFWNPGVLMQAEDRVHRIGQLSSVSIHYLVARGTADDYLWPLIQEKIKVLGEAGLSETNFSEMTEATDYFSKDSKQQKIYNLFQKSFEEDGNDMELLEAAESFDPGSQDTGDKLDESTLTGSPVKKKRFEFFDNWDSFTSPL

The target in another data set is T2, ADAAD F507A (Bos taurus (bovine), UniProt Q9TTA5 221-940, F727A).
T2 sequence: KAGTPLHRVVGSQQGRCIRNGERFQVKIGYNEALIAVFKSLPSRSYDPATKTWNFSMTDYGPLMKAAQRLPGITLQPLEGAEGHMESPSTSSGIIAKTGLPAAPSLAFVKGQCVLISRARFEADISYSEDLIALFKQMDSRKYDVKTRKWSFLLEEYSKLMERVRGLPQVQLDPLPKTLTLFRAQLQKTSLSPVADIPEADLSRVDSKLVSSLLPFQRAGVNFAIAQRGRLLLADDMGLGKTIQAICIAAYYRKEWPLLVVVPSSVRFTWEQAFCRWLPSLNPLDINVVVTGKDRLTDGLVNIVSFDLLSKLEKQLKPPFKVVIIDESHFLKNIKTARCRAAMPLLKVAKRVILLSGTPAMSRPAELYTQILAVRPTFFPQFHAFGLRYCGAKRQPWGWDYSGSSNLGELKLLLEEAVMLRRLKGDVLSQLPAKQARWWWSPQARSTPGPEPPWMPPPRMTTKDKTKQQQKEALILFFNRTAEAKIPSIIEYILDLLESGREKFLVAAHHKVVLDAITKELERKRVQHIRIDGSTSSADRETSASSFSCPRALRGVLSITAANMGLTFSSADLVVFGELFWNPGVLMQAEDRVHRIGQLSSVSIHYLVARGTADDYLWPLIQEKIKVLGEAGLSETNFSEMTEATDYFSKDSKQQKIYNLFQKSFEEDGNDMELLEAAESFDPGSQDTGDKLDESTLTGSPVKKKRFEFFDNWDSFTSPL

Another data set deals with T3, ADAAD R592A (Bos taurus (bovine), UniProt Q9TTA5 221-940, R812A).
T3 sequence: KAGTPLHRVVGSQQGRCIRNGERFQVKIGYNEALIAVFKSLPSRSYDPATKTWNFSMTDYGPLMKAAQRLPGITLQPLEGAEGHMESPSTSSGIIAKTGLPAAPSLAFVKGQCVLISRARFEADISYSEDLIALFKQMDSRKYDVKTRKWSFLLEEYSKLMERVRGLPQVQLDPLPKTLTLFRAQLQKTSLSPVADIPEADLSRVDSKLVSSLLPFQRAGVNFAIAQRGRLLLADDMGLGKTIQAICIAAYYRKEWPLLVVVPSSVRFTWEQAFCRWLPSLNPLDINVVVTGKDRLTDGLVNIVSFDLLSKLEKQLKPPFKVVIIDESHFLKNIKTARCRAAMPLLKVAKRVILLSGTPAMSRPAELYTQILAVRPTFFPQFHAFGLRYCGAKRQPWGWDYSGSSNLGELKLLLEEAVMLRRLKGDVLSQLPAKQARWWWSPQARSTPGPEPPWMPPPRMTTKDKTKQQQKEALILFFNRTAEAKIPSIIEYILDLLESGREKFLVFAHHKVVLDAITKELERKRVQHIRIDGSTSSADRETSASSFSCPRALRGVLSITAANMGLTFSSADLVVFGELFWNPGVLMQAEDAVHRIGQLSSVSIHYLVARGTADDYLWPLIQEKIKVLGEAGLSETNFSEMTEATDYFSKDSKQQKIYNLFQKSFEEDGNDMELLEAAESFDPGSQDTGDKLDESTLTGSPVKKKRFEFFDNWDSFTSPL

B1: slDNA (stem-loop DNA) (structured_DNA)
DNA: GCGCAATTGCGCTCGACGATTTTTTAGCGCAATTGCGC
For orientation: Kd means the concentration at which binding is half-saturated. For B1, the Kd with ADAAD S558A amounted to 11 ± 2.7 nM; with ADAAD F507A, 19 ± 4.5 nM; in the data set with ADAAD R592A, 31.5 ± 1.3 nM.
